# T1: H2-Kb molecules in the microsomes of RAW309Cr.1 cells (murine)
# T1 chain 1: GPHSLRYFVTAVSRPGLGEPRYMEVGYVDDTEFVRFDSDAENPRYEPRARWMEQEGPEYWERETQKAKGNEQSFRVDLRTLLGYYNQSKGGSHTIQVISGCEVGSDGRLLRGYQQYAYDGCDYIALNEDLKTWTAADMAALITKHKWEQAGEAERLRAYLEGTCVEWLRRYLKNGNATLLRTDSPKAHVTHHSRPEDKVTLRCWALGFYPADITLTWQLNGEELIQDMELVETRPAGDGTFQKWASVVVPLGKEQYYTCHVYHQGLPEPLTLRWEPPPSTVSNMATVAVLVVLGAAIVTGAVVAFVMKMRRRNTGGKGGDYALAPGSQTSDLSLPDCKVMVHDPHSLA
# T1 chain 2: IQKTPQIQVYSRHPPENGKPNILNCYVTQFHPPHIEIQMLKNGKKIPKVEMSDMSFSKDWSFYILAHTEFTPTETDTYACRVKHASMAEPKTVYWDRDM
# Target: T1, H2-Kb molecules in the microsomes of …
# Experiment: competition against 125I-labelled modified OVA peptide (competitor at the concentration of the report peptide), photo-crosslinking to Kb in microsomes
# Details: remark: other sources report otherwise
binder,measurement,value
"SIINFEKL [native OVA peptide (residues 257-264, SIINFEKL)]",percent of the report peptide competed,50%
